Read-outs that look alike come from different tables or passages of the source.
Key:
EBV gp350 [1] = molecular target: T1, EBV gp350 (Epstein-Barr virus, UniProt P03200); assay: MBP-CR2 SCR1-2 mutant-EBV gp350 ELISA; type: binding; design: DNA corresponding to residues 1-470 of EBV gp350/220; E. coli biotin carboxyl carrier protein (BCCP) fragment, residues 70-156; hexa-histidine (C); made in house; host or cells: human embryonic kidney 293f freestyle cells (pSecTag2/Hygro B); conditions: for EBV gp350 binding relative to wild-type CR2: mutant MBP-CR2 SCR1-2
T1 sequence (P03200 1-470): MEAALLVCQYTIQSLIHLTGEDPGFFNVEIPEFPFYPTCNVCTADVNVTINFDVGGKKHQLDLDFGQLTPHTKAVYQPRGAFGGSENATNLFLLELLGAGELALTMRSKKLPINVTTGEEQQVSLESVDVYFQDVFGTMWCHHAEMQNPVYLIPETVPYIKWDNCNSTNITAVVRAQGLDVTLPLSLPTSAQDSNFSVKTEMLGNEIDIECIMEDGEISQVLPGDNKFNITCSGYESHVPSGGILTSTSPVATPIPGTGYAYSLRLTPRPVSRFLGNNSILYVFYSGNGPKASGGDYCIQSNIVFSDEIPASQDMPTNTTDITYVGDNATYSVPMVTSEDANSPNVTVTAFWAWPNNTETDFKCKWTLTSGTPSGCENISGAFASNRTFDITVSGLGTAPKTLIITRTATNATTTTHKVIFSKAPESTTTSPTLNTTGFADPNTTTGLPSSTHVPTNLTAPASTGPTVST
Description: See Martin et al. (1991) J Exp Med 174:1299-311; Young et al. (2007) J Biol Chem 282:36614-36625; Guthridge et al. (2001) Biochemistry 40:5931-41; and Sarrias et al. (2001) J Immunol 167:1490-9. […] Young et al. (2007) J Biol Chem 282:36614-36625.
(§1) After coating, the plates were blocked using 0.1% BSA in a PBS solution, pH 7.4 for one hour at room temperature. The plates were then washed, and incubated with either wild-type or mutant MBP-CR2 SCR1-2, at concentrations ranging from 0.03125-2.0 μg/ml in PBS for one hour at room temperature. After further washing, wild-type or mutant MBP-CR2 binding was detected using commercially available horseradish peroxidase-conjugated anti-MBP mAb (New England Biolabs) according to the manufacturer's instructions.

[2] = system: anti-CR2 SCR1-2 monoclonal antibody 171; assay: MBP-CR2 SCR1-2-171 mAb ELISA; type: binding; conditions: mutant MBP-CR2 SCR1-2 relative to wild-type; for % 171 mAb Binding: plate-bound 171 mAb
Description: See Asokan et al. (2006) J Immunol 177:383-94; Guthridge et al. (2001) J Immunol 167:5758-66; Young et al. (2007) J Biol Chem 282:36614-36625. […] Hannan et al. (2005) J Mol Biol 346:845-58; and Young et al. (2007) J Biol Chem 282:36614-36625.
as §1

anti-CR2 SCR1-2 mAb 629 = assay: MBP-CR2 SCR1-2-629 mAb ELISA; type: binding; conditions: mutant MBP-CR2 SCR1-2 relative to wild-type; for % 629 mAb Bindng: plate-bound 629 mAb
Source text: The excellent correlation observed between our cell-binding studies and the ELISA analyses provides proof-of-principle that the MBP-CR2 SCR1-2 ELISA is an effective means of characterizing CR2-ligand interactions. […] See Asokan et al. (2006) J Immunol 177:383-94; Guthridge et al. (2001) J Immunol 167:5758-66; Young et al. (2007) J Biol Chem 282:36614-36625. […] This epitope overlaps extensively with the binding surface on CR2 described above for EBV gp350, and also with the previously described binding sites for C3dg and C3d. Hannan et al. (2005) J Mol Biol 346:845-58; and Young et al. (2007) J Biol Chem 282:36614-36625.
as §1

EBV gp350 [3] = molecular target: T1, EBV gp350; conditions: previously observed cell-binding study; mutant CR2 relative to wild-type; cited from earlier work

Row | Molecule | EBV gp350 binding relative to wild-type CR2 (EBV gp350 [1]) | Weighting (171 mAb) [2] | % 171 mAb Binding [2] [%] | Weighting (629 mAb) (anti-CR2 SCR1-2 mAb 629) | % 629 mAb Bindng (anti-CR2 SCR1-2 mAb 629) [%] | EBV gp350 binding (EBV gp350 [3]) [%] | EBV gp350 binding (EBV gp350 [1]; mutant CR2 relative to wild-type CR2) [%] | decrease in EBV gp350 binding (EBV gp350 [1]; reduction relative to wild-type MBP-CR2 SCR1-2)
1 | S15P: single-site mutant of recombinant MBP-CR2 SCR1-2 (protein, left off: large carriers; small tags and cut ends) ISCGSPPPILNGRIPYYSTPIAVGTVIRYSCSGTFRLIGEKSLLCITKDKVDGTWDKPAPKCEYFNKYSSCPEPIVPGGYKIRGSTPYRHGDSVTFACKTNFSMNGNKSVWCQANNMWGPTRLPTCVSVFPLE | major reduction in EBV gp350 binding | ++++ (++++>90%) | 108.5 | ++++ (++++>90%) | 91.7 | – | – | –
2 | L10A: single-site mutant of recombinant MBP-CR2 SCR1-2 (protein, left off: large carriers; small tags and cut ends) ISCGSPPPIANGRISYYSTPIAVGTVIRYSCSGTFRLIGEKSLLCITKDKVDGTWDKPAPKCEYFNKYSSCPEPIVPGGYKIRGSTPYRHGDSVTFACKTNFSMNGNKSVWCQANNMWGPTRLPTCVSVFPLE | failed to inhibit EBV gp350 binding | ++++ (++++>90%) | 94.7 | ++++ (++++>90%) | 113.2 | – | – | –
3 | Y16A: single-site mutant of recombinant MBP-CR2 SCR1-2 (protein, left off: large carriers; small tags and cut ends) ISCGSPPPILNGRISAYSTPIAVGTVIRYSCSGTFRLIGEKSLLCITKDKVDGTWDKPAPKCEYFNKYSSCPEPIVPGGYKIRGSTPYRHGDSVTFACKTNFSMNGNKSVWCQANNMWGPTRLPTCVSVFPLE | failed to inhibit EBV gp350 binding | +++ (+++89.9-70%) | 81.4 | ++++ (++++>90%) | 154.4 | 66.7 | 95.1 | –
4 | K67A: single-site mutant of recombinant MBP-CR2 SCR1-2 (protein, left off: large carriers; small tags and cut ends) ISCGSPPPILNGRISYYSTPIAVGTVIRYSCSGTFRLIGEKSLLCITKDKVDGTWDKPAPKCEYFNAYSSCPEPIVPGGYKIRGSTPYRHGDSVTFACKTNFSMNGNKSVWCQANNMWGPTRLPTCVSVFPLE | – | +++ (+++89.9-70%) | 87.7 | ++++ (++++>90%) | 107.2 | – | – | approximately 20%
5 | R83A: single-site mutant of recombinant MBP-CR2 SCR1-2 (protein, left off: large carriers; small tags and cut ends) ISCGSPPPILNGRISYYSTPIAVGTVIRYSCSGTFRLIGEKSLLCITKDKVDGTWDKPAPKCEYFNKYSSCPEPIVPGGYKIAGSTPYRHGDSVTFACKTNFSMNGNKSVWCQANNMWGPTRLPTCVSVFPLE | decreased binding affinities for EBV gp350 | ++++ (++++>90%) | 96.9 | ++++ (++++>90%) | 94.4 | – | – | –
6 | R89A: single-site mutant of recombinant MBP-CR2 SCR1-2 (protein, left off: large carriers; small tags and cut ends) ISCGSPPPILNGRISYYSTPIAVGTVIRYSCSGTFRLIGEKSLLCITKDKVDGTWDKPAPKCEYFNKYSSCPEPIVPGGYKIRGSTPYAHGDSVTFACKTNFSMNGNKSVWCQANNMWGPTRLPTCVSVFPLE | decreased binding affinities for EBV gp350 | ++++ (++++>90%) | 93.9 | +++ (+++89.9-70%) | 87.7 | – | – | –

Reference: US20120108492A1, “LIGAND-SPECIFIC NON-ANTIBODY COMPOUNDS THAT INHIBIT CR2 ACTIVATION AND METHODS OF USE THEREOF” (The Regents of the University of Colorado, priority 2008, published 2012)
